Test results reported in the supplement of paper PMC10567573.

B1: ATL3 (parent)
chain: HFKKTKKMGGKDFSFRYQQELEEE

Variants of: B1
Test: protein stability index of a GFP-peptide fusion (GPS, HEK-293T) (PSI 1-6); higher = more stable
Settings: c terminus: a fixed tail appended
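Further: lentivirally expressed fusions sorted by FACS into six bins by GFP to DsRed ratio, PSI derived from sequencing read proportions per bin multiplied by bin number.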

Protein stability index, by site and new letter:
R16: K 2.51, L 2.45, T 4.47, A 2.98, G 4.22, W 2.11, F 3.07, M 2.84, P 4.96, N 3.69, Q 3.08, Y 2.18, D 5.02, H 3.09, V 2.54, E 5.18, S 4.39, C 3.28
L21: F 1.53, C 2.1, D 4.71, K 3.3, H 2.44, I 2.98, E 3.19
Q19: H 2.38, T 2.21, P 3.56, N 4.01, C 1.57, A 3.52, K 1.89, F 1.71, R 2.52, W 2.03, I 1.46, G 3.99, S 2.5, V 2.92, E 2.45, D 3.36
D12: V 2.7, R 1.96, I 2.43, T 2.24, S 2.65, P 1.99, L 2.67, N 2.1, A 1.88, Y 2.32, E 2.34, M 1.46
K11: C 2.17, H 2.11, P 2.06, F 1.24, N 1.78, W 1.78, E 1.2, A 2.69, V 2.39, I 2.27, T 2.22, Y 1.26, S 2.4, Q 2.24
E20: M 3.43, I 3.47, F 3.58, Y 3.14, C 4.73, K 4.17, S 3.94, H 3.98, Q 2.91, P 3.22, T 3.31, R 3.96, G 3.11, V 2.51, W 2, N 3.16, D 2.25, A 3.31
F15: R 1.83, C 3.07, E 1.39, N 1.66, P 4.31, L 2.46, H 2.71, I 1.42, Y 1.54, D 1.76, T 2.24, K 3.04, G 2.22, A 2.54, M 2.39
G10: Y 1.79, S 3.53, V 2.04, W 1.7, T 1.61
F13: H 2.79, L 4.45, C 4.74, S 4.83, N 5.05, K 4.09, T 4.97, Q 5.21, Y 2.75, D 5.57, M 3.76, E 5.36, I 4.91, P 4.29, G 5.01, R 3.94, V 4.96, A 5.27
S14: L 2.35, V 2.17, G 2.54, W 4.01, P 3.12, H 4.29, C 1.08, N 4.1, K 3.31, M 2.91, Y 3.61, Q 1.93, E 1.53, T 3.24, D 4.48, F 3.85
Q18: P 4.2, L 2.64, T 2.27, A 2, K 2.09, E 2.73, H 2.34, N 2.54, G 1.87, R 1.44, D 4.65, Y 1.81, I 1.85
Y17: V 2.03, M 4.21, G 4.68, Q 4.78, W 2.61, R 5.25, L 2.1, S 3.14, N 5.28, D 5.61, H 3.72, P 4.68, T 2.38, K 4.89, E 5.02
